In the test the target is recombinant stabilised complete spike protein (SARS-CoV-2), pre-fusion (SARS-CoV-2) (UniProt P0DTC2). Nature of the test: affinity purification with mass spectrometry.

With “human serum albumin (from UniProt P02768 25-609) (natural protein)”, the mean MALDI-ToF peak intensity of HSA eluted from the beads was found to be 1920 AU.

(Values after PMC9030890.)
